B1: W3162_1.154.8-z35-uAb.IgG1K (antibody, V domains shown)
VH: QVQLVQSGAEVKKPGSSVKVSCKASGYTFTNYFMNWVRQAPGQGLEWMGRVDPEQGRADYAEKFKKRVTITADKSTSTAYMELSSLRSEDTAVYYCARRAMDNYGFAYWGQGTLVTVSS
VL: EIVLTQSPDFQSVTPKEKVTITCSANSALSYMYWYQQKPDQSPKLWVHGTSNLASGVPSRFSGSGSGTDFTLTINSLEAEDAATYYCHHWSNTQWTFGGGTKVEIK
notes: Humanized; label says IgG1K
B2: W3162-1.146.19-z12-uAb.IgG1K (antibody, V domains shown)
VH: QVQLQESGPGLVKPSETLSLTCSVTYHTITSGYDWTWIRKPPGKGMEWIGYISYSGNTNYNPSLKSRVTISRDTSKNQFFLKLSSVTAADTAVYYCASMMVPHYYVMDAWGQGTLVTVSS
VL: DIVMTQTPLSLSVTPGQPASISCRSSQSLLNSDGNTYLYWYLQKPGQSPQLLIYLVSKLGSGVPNRFSGSGSGTDFTLKISRVEAEDVGVYYCVQGTHDPWTFGGGTKVEIK
notes: Humanized; label says IgG1K

Columns and labels:
hCTLA-4.ECD.hFc-Biotin = biological target: T1, hCTLA-4.ECD.hFc-Biotin (human, UniProt P16410 36-161, biotinylated (sites not given)); experiment: FACS competition, hCTLA-4.ECD.hFc-Biotin on CD80-expressing CHO cells
T1 construct: extracellular domain; also called Biotinylated CTLA-4.ECD.hFc; biotinylated human CTLA4.ECD.hFc; not shown: human Fc tag (hFc)
T1 sequence (looked up): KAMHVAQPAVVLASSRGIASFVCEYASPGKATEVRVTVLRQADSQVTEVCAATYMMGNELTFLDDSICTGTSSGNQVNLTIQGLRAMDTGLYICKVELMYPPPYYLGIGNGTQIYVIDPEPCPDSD
Description: PE conjugated Streptavidin was purchased from eBioscience (Catalog number 12-4317).
Then the mixtures of antibody and CTLA-4 were added to the cells and incubated for 1 hour at 4° C. The cells were washed two times with 200 μL FACS buffer (DPBS containing 1% BSA). Streptavidin PE 1 to 333 diluted in FACS buffer was added to the cells and incubated at 4° C. for 1 hour. Additional washing steps were performed two times with 200 μL FACS buffer followed by centrifugation at 1500 rpm for 4 minutes at 4° C. Finally, the cells were resuspended in 100 μL FACS buffer and fluorescence values were measured by flow cytometry and analyzed by FlowJo.

human CTLA-4.ECD-6×His = biological target: T2, human CTLA-4.ECD-6×His (human, UniProt P16410 36-161); experiment: ELISA, coated human CTLA-4.ECD-6×His
T2 construct: extracellular domain; also called WBP316.hCTLA-4.ECD-6×His; hCTLA4-His (WT)
T2 sequence: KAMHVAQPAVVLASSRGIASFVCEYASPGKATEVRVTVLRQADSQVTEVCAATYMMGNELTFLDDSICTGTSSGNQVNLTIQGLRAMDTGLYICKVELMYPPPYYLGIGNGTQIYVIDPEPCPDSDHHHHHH
Description: (§1) ELISA was used to test binding of anti-human CTLA-4 antibodies to human, murine and cynomolgus monkey CTLA-4 protein. A 96-well plate was coated with human CTLA-4.ECD-6×His (1.0 μg/mL), cynomoguls monkey CTLA-4.ECD-6×His (0.5 μg/mL) or mouse CTLA-4.ECD-6×His (0.5 μg/mL) at 4° C. for 16-20 hours. After 1 hour blocking with 2% BSA in DBPS, testing antibodies, as well as positive and negative control antibodies were added to the plates and incubated at room temperature for 1 hour. The binding of the antibodies to the plates were detected by HRP-conjugated goat anti-human IgG antibody (1:5000 dilution) with 1 hour incubation. The color was developed by dispensing 100 μL of TMB substrate for 8 mins, and then stopped by 100 μL of 2N HCl.

[1] = biological target: T3, cynomolgus monkey CTLA-4 ECD-6×His (cynomolgus monkey); experiment: ELISA, coated cynomolgus monkey CTLA-4.ECD-6×His
T3 construct: extracellular domain; Bought; also called cynomoguls monkey CTLA-4.ECD-6×His
Description: as §1

[2] = biological target: T4, full length human CTLA-4 on cells (human, UniProt P16410 36-223); experiment: flow cytometry affinity on cells expressing human CTLA-4
T4 construct: whole, on cells; also called CTLA-4-expressing cell line
T4 sequence (looked up): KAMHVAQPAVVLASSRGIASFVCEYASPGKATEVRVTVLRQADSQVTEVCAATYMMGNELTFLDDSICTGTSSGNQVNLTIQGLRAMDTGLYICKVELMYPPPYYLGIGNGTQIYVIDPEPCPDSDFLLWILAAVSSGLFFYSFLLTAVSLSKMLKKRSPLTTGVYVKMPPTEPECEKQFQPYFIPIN
Description: Briefly, HEK293 cells expressing human CTLA-4 were transferred in to 96-well U-bottom plates (BD) at a density of 5×10⁴ cells/well. Testing antibodies were 1:2-fold serially diluted in PBS with 1% BSA and incubated with cells at 4° C. for 1 hour. After centrifugation at 1500 rpm for 4 min, the supernatant was discarded. The secondary antibody, FITC conjugated goat anti-human IgG Fc (3.2 FITC per IgG, Jackson Immunoresearch Lab), was added to re-suspend cells to final concentration 14 μg/ml, and incubated at 4° C. in the dark for 30 min. The cells were then washed once and re-suspended in PBS with 1% BSA, and analyzed by flow cytometery (BD). Fluorescence intensity was converted to bound molecules/cell based on the quantitative beads (Quantum™ MESF Kits, Bangs Laboratories). KD was calculated using Graphpad Prism5.
The affinity of humanized antibodies binding to cell surface CTLA-4 was measured by flow cytometry method, modified from Benedict's method [Benedict 1997 JIM].

[3] = biological target: T5, hCTLA4_ECD.His point mutant I128 to alanine (human, UniProt P16410 36-161); experiment: capture ELISA, alanine scan, vs silent alanine substitutions
T5 construct: extracellular domain; alanine-scan mutein, HEK293F supernatant
T5 sequence (looked up): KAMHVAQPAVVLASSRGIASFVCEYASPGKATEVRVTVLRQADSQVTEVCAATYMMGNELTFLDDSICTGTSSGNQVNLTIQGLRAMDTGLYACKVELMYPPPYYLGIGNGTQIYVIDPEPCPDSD
How it was run: (§2)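 Secreted His-tagged CTLA4 point muteins in quantified supernatant were captured and probed with HRP anti-His antibody and TMB. Absorbance normalised to the mean of control mutants; epitope residues were assigned with a binding fold-change cutoff of <0.55.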

[4] = biological target: T6, hCTLA4_ECD.His point mutant G144 to alanine (human, UniProt P16410 36-161); experiment: as above
T6 construct: extracellular domain; alanine-scan mutein, HEK293F supernatant
T6 sequence (looked up): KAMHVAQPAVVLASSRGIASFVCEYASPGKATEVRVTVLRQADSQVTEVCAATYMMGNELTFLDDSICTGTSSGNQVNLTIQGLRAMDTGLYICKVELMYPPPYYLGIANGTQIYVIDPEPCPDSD
How it was run: as §2

[5] = biological target: T7, hCTLA4_ECD.His point mutant I143 to alanine (human, UniProt P16410 36-161); experiment: as above
T7 construct: extracellular domain; alanine-scan mutein, HEK293F supernatant
T7 sequence (looked up): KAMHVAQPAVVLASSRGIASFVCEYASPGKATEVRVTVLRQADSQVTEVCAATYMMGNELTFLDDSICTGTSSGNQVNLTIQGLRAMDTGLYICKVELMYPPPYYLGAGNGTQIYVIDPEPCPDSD
How it was run: as §2

[6] = biological target: T8, hCTLA4_ECD.His point mutant Y89 to alanine (human, UniProt P16410 36-161); experiment: as above
T8 construct: extracellular domain; alanine-scan mutein, HEK293F supernatant
T8 sequence (looked up): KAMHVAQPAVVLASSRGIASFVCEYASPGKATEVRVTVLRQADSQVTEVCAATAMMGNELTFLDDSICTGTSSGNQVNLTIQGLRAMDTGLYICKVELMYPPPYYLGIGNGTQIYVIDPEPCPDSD
How it was run: as §2

Binder | IC50 (hCTLA-4.ECD.hFc-Biotin) | EC50 (human CTLA-4.ECD-6×His) | EC50 [1] | Kd [2] | Fold change [3] | Fold change [4] | Fold change [5] | Fold change [6]
B1 | 0.07 nM | 0.04 nM | 0.05 nM | 0.35 nM |  |  |  | 
B2 | 6.6 nM | 0.03 nM | 0.05 nM | 5 nM | 0.256 fold | 0.478 fold | 0.264 fold | 0.512 fold

From patent publication US20200277377A1 (WUXI BIOLOGICS SHANGHAI, published 2020)
